Test results published in patent US20230212549A1, “COMPOUNDS COMPRISING A […] LIGAND AND USE THEREOF” (priority 2021, published 2023).
Bridge positions count the residues as written; N and C are the ends.

B1: Hex-[Cys(tMeBn(DOTA-PP))-Pro-Pro-Thr-Gln-Phe-Cys]-Asp-NH2 (peptide)
peptide: Hex-CPPTQFCD-NH2
modifications: bridge 1-7; not fully specified (bridges); printed as Hex-[Cys(tMeBn(DOTA-PP))-Pro-Pro-Thr-Gln-Phe-Cys]-Asp-NH2
B2: Hex-[Cys(tMeBn(DOTA-AET))-Pro-Pro-Thr-Gln-Phe-Cys]-OH (peptide)
peptide: Hex-CPPTQFC-OH
modifications: bridge 1-7; not fully specified (bridges); printed as Hex-[Cys(tMeBn(DOTA-AET))-Pro-Pro-Thr-Gln-Phe-Cys]-OH

Experiments:
Experiment in all cases: radioligand displacement (agonist radioligand), 10 µM
[1] = substrate: N neuronal alpha 4beta 2 (h) (human), P43681; conditions: remark: other sources report otherwise
N neuronal alpha 4beta 2 (h) (human), P43681, sequence (P43681 27-627, chain 1 of 2): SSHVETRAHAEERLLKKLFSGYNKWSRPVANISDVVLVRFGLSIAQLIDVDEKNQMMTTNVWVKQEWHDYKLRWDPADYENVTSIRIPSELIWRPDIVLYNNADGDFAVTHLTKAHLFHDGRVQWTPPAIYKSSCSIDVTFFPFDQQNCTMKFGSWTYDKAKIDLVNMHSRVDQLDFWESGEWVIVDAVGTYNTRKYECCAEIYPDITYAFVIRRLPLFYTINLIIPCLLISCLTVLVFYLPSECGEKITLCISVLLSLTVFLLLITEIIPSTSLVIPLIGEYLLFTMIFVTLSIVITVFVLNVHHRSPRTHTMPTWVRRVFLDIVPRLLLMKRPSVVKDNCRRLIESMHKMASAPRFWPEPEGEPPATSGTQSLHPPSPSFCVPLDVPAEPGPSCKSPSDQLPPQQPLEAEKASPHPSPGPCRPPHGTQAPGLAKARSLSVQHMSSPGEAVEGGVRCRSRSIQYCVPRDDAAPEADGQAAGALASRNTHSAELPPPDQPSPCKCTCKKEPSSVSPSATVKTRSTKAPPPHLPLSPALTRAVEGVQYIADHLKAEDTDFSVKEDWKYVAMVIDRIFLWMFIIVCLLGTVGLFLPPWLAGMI
N neuronal alpha 4beta 2 (h) (human), P43681, sequence (P17787 26-502, chain 2 of 2, further chain): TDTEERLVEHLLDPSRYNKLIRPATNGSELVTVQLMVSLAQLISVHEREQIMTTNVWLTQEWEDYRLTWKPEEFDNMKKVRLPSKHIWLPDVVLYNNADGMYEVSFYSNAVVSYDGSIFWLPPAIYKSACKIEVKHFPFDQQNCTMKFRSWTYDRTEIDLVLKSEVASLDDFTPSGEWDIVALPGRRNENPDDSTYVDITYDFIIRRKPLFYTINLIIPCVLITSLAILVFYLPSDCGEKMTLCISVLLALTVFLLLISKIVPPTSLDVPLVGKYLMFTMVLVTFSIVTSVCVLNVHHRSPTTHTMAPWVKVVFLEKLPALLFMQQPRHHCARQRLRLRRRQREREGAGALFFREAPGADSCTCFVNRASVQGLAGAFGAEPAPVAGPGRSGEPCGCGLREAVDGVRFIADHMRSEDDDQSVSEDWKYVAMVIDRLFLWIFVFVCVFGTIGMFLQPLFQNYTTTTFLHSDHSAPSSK

[2] = molecular target: T1, CCK1 (CCKA) (h) (human), P32238; conditions: remark: other sources report otherwise
T1 chain: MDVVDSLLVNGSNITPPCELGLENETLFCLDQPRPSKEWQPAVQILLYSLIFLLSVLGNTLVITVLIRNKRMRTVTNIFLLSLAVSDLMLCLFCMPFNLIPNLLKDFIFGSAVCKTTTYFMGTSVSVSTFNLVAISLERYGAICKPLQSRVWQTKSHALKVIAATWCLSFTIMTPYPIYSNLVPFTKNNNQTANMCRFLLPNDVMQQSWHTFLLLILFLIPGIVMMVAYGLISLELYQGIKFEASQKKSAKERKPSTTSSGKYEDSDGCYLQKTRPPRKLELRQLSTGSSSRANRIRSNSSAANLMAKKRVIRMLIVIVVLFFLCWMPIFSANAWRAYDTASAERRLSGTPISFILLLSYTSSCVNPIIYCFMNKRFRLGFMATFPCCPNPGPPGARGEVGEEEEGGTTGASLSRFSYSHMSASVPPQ

V1a (h) (human), P37288 = conditions: remark: other sources report otherwise
V1a (h) (human), P37288, sequence (P37288 whole entry): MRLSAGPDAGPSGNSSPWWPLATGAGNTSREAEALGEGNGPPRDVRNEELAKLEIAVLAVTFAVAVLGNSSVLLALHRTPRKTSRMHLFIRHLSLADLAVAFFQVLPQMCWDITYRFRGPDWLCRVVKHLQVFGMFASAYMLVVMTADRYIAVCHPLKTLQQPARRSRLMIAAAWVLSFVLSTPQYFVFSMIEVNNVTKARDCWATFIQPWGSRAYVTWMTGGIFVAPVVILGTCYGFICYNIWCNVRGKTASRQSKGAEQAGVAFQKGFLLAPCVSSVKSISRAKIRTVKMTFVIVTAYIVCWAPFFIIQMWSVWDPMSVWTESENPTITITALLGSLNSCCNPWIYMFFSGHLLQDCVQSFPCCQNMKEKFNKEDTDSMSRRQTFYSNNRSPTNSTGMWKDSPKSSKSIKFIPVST

ETA (h) (human), P25101 = molecular target: T2, ETA (h) (human), P25101; conditions: remark: other sources report otherwise
T2 chain: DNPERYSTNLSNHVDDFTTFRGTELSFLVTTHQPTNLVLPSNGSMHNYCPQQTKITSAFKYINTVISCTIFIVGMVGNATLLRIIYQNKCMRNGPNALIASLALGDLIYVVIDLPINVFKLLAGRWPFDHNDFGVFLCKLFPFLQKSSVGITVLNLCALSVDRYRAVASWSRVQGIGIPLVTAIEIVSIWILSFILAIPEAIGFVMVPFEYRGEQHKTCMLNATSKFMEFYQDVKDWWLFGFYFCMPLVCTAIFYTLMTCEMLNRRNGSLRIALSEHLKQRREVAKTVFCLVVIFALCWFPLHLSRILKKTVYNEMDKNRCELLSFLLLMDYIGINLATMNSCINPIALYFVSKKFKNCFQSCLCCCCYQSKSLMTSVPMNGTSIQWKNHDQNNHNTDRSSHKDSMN

[3] = molecular target: kappa (h) (KOP) (human), P41145; conditions: remark: other sources report otherwise
kappa (h) (KOP) (human), P41145, sequence (P41145 whole entry): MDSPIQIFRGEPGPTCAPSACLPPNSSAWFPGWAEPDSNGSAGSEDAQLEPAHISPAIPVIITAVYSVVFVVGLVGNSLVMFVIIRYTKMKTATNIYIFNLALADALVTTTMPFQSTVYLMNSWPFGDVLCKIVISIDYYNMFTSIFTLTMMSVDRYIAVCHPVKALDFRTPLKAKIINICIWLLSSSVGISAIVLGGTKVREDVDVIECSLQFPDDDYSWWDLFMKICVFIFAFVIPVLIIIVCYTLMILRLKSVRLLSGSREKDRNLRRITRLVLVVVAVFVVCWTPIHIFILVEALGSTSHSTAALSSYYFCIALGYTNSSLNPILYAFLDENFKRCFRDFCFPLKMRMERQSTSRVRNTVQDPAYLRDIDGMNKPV

D2S (h) (human), P14416 = molecular target: T3, D2S (h) (human), P14416
T3 chain: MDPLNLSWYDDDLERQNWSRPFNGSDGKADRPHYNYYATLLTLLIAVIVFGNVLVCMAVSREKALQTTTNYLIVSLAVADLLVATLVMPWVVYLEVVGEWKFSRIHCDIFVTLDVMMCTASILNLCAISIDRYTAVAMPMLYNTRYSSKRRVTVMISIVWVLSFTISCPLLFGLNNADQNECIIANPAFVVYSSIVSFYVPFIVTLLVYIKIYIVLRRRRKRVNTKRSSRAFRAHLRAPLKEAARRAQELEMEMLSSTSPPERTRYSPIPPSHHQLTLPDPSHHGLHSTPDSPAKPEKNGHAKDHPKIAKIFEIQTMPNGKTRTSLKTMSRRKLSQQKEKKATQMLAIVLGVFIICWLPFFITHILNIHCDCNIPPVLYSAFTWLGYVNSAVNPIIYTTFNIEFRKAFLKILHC

[4] = molecular target: T4, delta (DOP) (h) (human), P41143; conditions: remark: other sources report otherwise
T4 chain: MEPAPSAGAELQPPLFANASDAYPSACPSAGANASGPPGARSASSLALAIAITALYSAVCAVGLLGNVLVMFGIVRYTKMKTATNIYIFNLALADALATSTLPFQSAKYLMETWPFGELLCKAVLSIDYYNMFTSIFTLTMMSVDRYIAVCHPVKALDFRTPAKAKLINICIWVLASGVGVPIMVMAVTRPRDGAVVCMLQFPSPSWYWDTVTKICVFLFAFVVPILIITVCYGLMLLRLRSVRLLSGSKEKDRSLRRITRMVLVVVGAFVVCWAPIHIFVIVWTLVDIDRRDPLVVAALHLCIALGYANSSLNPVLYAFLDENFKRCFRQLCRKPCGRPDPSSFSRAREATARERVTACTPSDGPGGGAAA

CB1 (h) (human), P21554 = molecular target: T5, CB1 (h) (human), P21554; conditions: remark: other sources report otherwise
T5 chain: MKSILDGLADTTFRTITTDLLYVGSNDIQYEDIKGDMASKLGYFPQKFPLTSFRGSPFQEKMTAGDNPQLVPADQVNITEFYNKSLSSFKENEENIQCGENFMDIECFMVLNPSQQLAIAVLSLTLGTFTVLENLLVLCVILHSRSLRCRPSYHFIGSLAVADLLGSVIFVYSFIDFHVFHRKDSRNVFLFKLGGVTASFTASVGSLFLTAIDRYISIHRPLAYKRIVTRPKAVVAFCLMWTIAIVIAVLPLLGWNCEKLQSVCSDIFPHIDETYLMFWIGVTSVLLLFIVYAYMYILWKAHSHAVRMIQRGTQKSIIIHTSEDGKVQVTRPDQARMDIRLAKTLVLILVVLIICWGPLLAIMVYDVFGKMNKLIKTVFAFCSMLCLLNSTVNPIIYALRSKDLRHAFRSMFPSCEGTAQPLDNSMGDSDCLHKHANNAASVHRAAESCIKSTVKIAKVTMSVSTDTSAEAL

[5] = molecular target: 5-HT2B (h) (human), P41595; conditions: remark: other sources report otherwise
5-HT2B (h) (human), P41595, sequence (P41595 whole entry): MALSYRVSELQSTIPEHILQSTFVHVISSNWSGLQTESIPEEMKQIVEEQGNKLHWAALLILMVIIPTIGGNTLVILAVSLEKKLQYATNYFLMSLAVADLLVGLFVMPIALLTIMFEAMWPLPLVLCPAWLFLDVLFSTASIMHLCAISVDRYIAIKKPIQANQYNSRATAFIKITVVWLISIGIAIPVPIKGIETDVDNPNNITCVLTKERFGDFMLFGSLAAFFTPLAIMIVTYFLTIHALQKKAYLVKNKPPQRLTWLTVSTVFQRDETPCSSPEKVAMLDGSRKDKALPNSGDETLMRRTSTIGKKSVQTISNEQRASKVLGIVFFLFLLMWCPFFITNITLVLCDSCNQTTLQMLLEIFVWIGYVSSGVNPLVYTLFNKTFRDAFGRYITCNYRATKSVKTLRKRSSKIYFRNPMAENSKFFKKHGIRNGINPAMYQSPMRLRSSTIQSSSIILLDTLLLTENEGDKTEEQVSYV

| Binder | % Inhibition of Specific Binding [1] | % Inhibition of Specific Binding [2] | % Inhibition of Specific Binding (V1a (h) (human), P37288) | % Inhibition of Specific Binding (ETA (h) (human), P25101) | % Inhibition of Specific Binding [3] | % Inhibition of Specific Binding (D2S (h) (human), P14416) | % Inhibition of Specific Binding [4] | % Inhibition of Specific Binding (CB1 (h) (human), P21554) | % Inhibition of Specific Binding [5] |
| --- | --- | --- | --- | --- | --- | --- | --- | --- | --- |
| B1 | -8% | 24% | 16% | -18% | 7% | 15% | 0% | 5% | 2% |
| B2 | -2% | 16% | 1% | 6% | 10% | -7% | 1% | -7% | 3% |
